The results in this text go back to patent US20260062488A1 (AbbVie / Abbott, published 2026).

Substitutions are numbered along the chain they refer to.

The target in assay [1] is T1, human α4β7 integrin (human, UniProt P13612 34-1032; P26010 20-798).
T1 construct: also called hα4β7; a4b7
The experiment in a line: FACS titration on BaF3-hα4β7.

The target in assay [2] is T1, human α4β7 integrin. The experiment in a line: FACS, primary human CD4+ memory T cells. On the technique in general: Flow cytometry measures light scatter and fluorescence of single cells or particles in a stream.
For assay [3], the target named is T1, human α4β7 integrin. The assay is described as follows: blockade of HuT78 cell adhesion to MAdCAM-1.
Assay [4] deals with T1, human α4β7 integrin. The assay is described as follows: blockade of HuT78 cell adhesion to MAdCAM-1. This is another data set of the same source.
Assay [5] addresses T2, cynomolgus α4β7 integrin (cynomolgus monkey).
T2 construct: whole, on cells; On CHOK1-cα4β7 cells or cynomolgus blood lymphocytes; also called cα4β7; cyno α4β7
The assay is described as follows: blockade of CHOK1-cα4β7 cell adhesion to MAdCAM-1.

For assay [6], the target named is T2, cynomolgus α4β7 integrin. The experiment in a line: blockade of CHOK1-cα4β7 cell adhesion to MAdCAM-1. This is another data set of the same source.
Assay [7] concerns the target T1, human α4β7 integrin. The assay is described as follows: FACS binding, human CD4+CD45RO+ T cells, summary table.
Assay [8] concerns the target T1, human α4β7 integrin. The assay is described as follows: MadCAM-1/HuT78 potency (adhesion blockade), summary table.
In assay [9] the target is T2, cynomolgus α4β7 integrin. The assay is described as follows: MadCAM-1/cα4β7 potency (adhesion blockade), summary table.
Assay [10] addresses T1, human α4β7 integrin. The experiment in a line: inhibition of MAdCAM-1 binding to human CD4+CD45RO+ T cells.
For assay [11], the target named is T2, cynomolgus α4β7 integrin. The experiment in a line: ratio of cyno to human adhesion-blockade potency, summary table.
For assay [12], the target named is T1, human α4β7 integrin. The experiment in a line: row IC50 (pM) HuT78 of the binning table (assay not explained, presumably adhesion to MAdCAM-1).
Assay [13] deals with T1, human α4β7 integrin. The assay is described as follows: blockade of HuT78 cell adhesion to plate-bound MAdCAM-1, representative experiment; the two IC50 lines under the plot bear no name: the lower one is given to Ab-m1, whose curve lies left of Ab-Vedo's (midpoint near log -2.1 ug/ml).
Assay [14] deals with T2, cynomolgus α4β7 integrin. The experiment in a line: blockade of CHOK1-cα4β7 cell adhesion to MAdCAM-1, representative experiment; the two IC50 lines under the plot bear no name: the lower one is given to Ab-m1, whose curve lies clearly left of Ab-Vedo's (midpoint near log -1.6 ug/ml).
Assay [15] addresses T1, human α4β7 integrin. The assay is described as follows: FACS, primary human CD4+ memory T cells (CD4+CD45RO+), one whole blood.
For assay [16], the target named is T1, human α4β7 integrin. The assay is described as follows: blockade of MAdCAM-1 mediated HuT78 cell adhesion.
Assay [17] has as its target T2, cynomolgus α4β7 integrin. The experiment in a line: blockade of CHOK1/cα4β7 adhesion to MAdCAM-1.
The target in assay [18] is T1, human α4β7 integrin. The experiment in a line: FACS on α4β7-expressing HuT78 cells.

Usually EC50 stands for the concentration giving half of the maximal effect. The low end stands for higher potency in that assay, the high end for lower potency in that assay. As a reminder, the IC50 is the concentration that gives 50% inhibition.

B1: Ab-m1 (antibody, V domains shown)
VH: EVQLQQSVAELVRPGASVKLSCTTSGFNIKNTYMHWVKQRPKQGLEWIGRIDPANGHTEYAPKFQGKATITADTSSNTAYLHLSSLTSDDTAIYYCYYVDSWGQGTTLTVSS
VL: DILMTQSPSSMSVSLGDTVSITCHASQGISDNIGWLQQRPGKSFKGLIYHGTNLEDGVPSRFSGSGSGADYSLTISSLESEDFADYYCVQYAQFPWTFGGGTTLEIK
notes: Hybridoma antibody, mouse IgG1/kappa; also called murine antibody Ab-m1; Mouse anti-human α4β7 [mu IgG1/k
Turning to B1, the 50% effective concentration (EC50) is 0.474 nM in the assay with human α4β7 integrin [1], 0.0098 nM with human α4β7 integrin [2] and 0.0098 nM with human α4β7 integrin [7]. In addition, the half-inhibitory concentration (IC50) with human α4β7 integrin [3] turned out to be 0.0555 nM; in the assay with human α4β7 integrin [4], 0.0228 nM; with cynomolgus α4β7 integrin [5] it was 0.201 nM; in the assay with cynomolgus α4β7 integrin [6], 0.0658 nM; with human α4β7 integrin [8], 0.0555 nM; with cynomolgus α4β7 integrin [9] it was 0.201 nM. The IC50 amounted to 0.0637 nM with human α4β7 integrin [10], 0.0447 nM with human α4β7 integrin [12], 0.0511 nM with human α4β7 integrin [13] and 0.165 nM with cynomolgus α4β7 integrin [14]. The Cyno x-reactivity in the assay with cynomolgus α4β7 integrin [11] was 4 fold.

B2: Ab-c1 (antibody, human IgG1, V domains shown)
VH: B1 VH
VL: B1 VL
notes: Ab-m1's variable regions with human IgG1/k constant regions; also called murine-human chimera Ab-c1; Chimeric anti-human α4β7 [hu IgG1/k
B2: the IC50 with human α4β7 integrin [4] is 0.0137 nM; in the assay with cynomolgus α4β7 integrin [6], 0.0864 nM. Also, the EC50 in the assay with human α4β7 integrin [15] is 0.0039 nM.

B3: Ab-h1.5 (antibody, human IgG1, V domains shown)
VH: EVQLVQSGAEVKKPGSSVKVSCTTSGFNIKNTYMHWVKQRPGQGLEWIGRIDPANGHTEYAPKFQGKATITADESTNTAYLELSSLRSEDTAVYYCYYVDSWGQGTTVTVSS
VL: DIQMTQSPSSLSASVGDRVTITCHASQGISDNIGWLQQKPGKSFKGLIYHGTNLEDGVPSRFSGSGSGADYTLTISSLQPEDFATYYCVQYAQFPWTFGGGTKVEIKR
Regarding B3, in the assay with human α4β7 integrin [16], half-maximal inhibition (IC50) was put at 0.0091 nM.

B4: Ab-h1.9 (antibody, human IgG1, V domains shown)
VH: B3 VH with T23K, T24A, K38R, R40A, K67R, A68V, L81M
VL: DIQMTQSPSSLSASVGDRVTITCHASQGISDNIGWLQQKPGKSFKLLIYHGTNLEDGVPSRFSGSGSGTDYTLTISSLQPEDFATYYCVQYAQFPWTFGGGTKVEIK
notes: Humanized, human IgG1 and kappa constant regions; also called Ab-H1.9 (parental)
In the case of B4, the IC50 was 0.0365 nM with cynomolgus α4β7 integrin [17] and 0.0114 nM in the assay with human α4β7 integrin [16].

B5: Ab-h1.9b (antibody, V domains shown)
VH: B3 VH with T23K, T24A, K38R, R40A, N55R, Q65S, K67R, A68V, L81M, S101Q
VL: B4 VL with G28D
notes: Liability-engineered clone converted to IgG format [hu IgG1/k]; constant regions of the tested mAb not specified
B5: the binding result with human α4β7 integrin [18] is given as “binds”.

B6: Ab-h1.6 (antibody, human IgG1, V domains shown)
VH: B3 VH
VL: B4 VL
B6: the IC50 with human α4β7 integrin [16] turned out to be 0.0081 nM.

B7: Ab-h1.8 (antibody, human IgG1, V domains shown)
VH: B3 VH with T23K, T24A, K38R, R40A, K67R, A68V, L81M
VL: B3 VL
B7 showed an IC50 in the assay with human α4β7 integrin [16] of 0.0138 nM.

B8: Ab-h1.9e (antibody, V domains shown)
VH: B3 VH with T23K, T24A, K38R, R40A, N55G, Q65I, K67R, A68V, L81M, D100A
VL: B4 VL with G28E
notes: as for B5
Turning to B8, the binding result with human α4β7 integrin [18] is given as “binds”.

B9: Ab-h1.9a (antibody, V domains shown)
VH: B3 VH with T23K, T24A, K38R, R40A, G56K, Q65L, K67R, A68V, L81M, D100A
VL: B4 VL with G28E
notes: as for B5
On to B9, for which the binding result in the assay with human α4β7 integrin [18] was “binds”.
